Experimental data published in patent US11278600B2, “Human alpha-galactosidase variants” (Codexis, Inc., priority 2014, dated 2022).

B1: 410 (protein)
chain: LDNGLARTPTMGWLHWERFMCNLDCQEEPDSCISEKLFMEMAERMVSEGWKDAGYEYLCIDDCWMAPQRDSEGRLQADPQRFPHGIRQLANYVHSKGLKLGIYADVGNKTCAGFPGSFGYYDIDAQTFADWGVDLLKFDGCYCDSLENLADGYKHMSLALNHTGRSIVYSCEWPLYMWPFQKPNYTEIRQYCNHWRNFADIDDSWKSIKSILDWTSRNQERIVDVAGPGGWNDPDMLVIGNFGLSWDQQVTQMALWAIMAAPLFMSNDLRHISPQAKALLQDKDVIAINQDPLGKQGYQLRKGDNFEVWERPLSGDAWAVAIINRQEIGGPRSYTIPVASLGKGVACNPACFITQLLPVKRQLGFYNWTSRLKSHINPTGTVLLQLENTMQMSLKDLL
modifications: Synthetic Polypeptide sequence of Variant No. 410 of mature Human GLA
B2: 363 (protein)
chain: LDNGLARTPTMGWLHWERFMCNLDCQEEPDSCISEKLFMEMAERMVDEGWKDAGYEYLCIDDCWMAPQRDSEGRLQADPQRFPHGIRQLANYVHSKGLKLGIYADVGNKTCAGFPGSFGYYDIDAQTFADWGVDLLKFDGCYCDSLENLADGYKHMSLALNRTGRSIVYSCEWPLYMWPFQKPNYTEIRQYCNHWRNFADIDDSWKSIKSILDWTSRNQERIVDVAGPGGWNDPDMLVIGNFGLSWDQQVTQMALWAIMAAPLFMSNDLRHISPQAKALLQDKDVIAINQDPLGKQGYQLRKGDNFEVWERPLSGDAWAVAIINRQEIGGPRSYTIPVASLGKGVACNPACFITQLLPVKRQLGFYNWTSRLKSHINPTGTVLLQLENTMQMSLKDLL
modifications: Synthetic Polypeptide sequence of Variant No. 363 of mature Human GLA
B3: 414 (protein)
chain: LDNGLARTPTMGWLHWERFMCNLDCQEEPDSCISEKLFMEMAERMVSEGWKDAGYEYLCIDDCWMAPQRDSEGRLQADPQRFPHGIRQLANYVHSKGLKLGIYADVGNKTCAGFPGSFGYYDIDAQTFADWGVDLLKFDGCYCDSLENLADGYKHMSQALNRTGRSIVYSCEWPLYMWPFQKPNYTEIRQYCNHWRNFADIDDSWKSIKSILDWTSRNQERIVDVAGPGGWNDPDMLVIGNFGLSWDQQVTQMALWAIMAAPLFMSNDLRHISPQAKALLQDKDVIAINQDPLGKQGYQLRKGDNFEVWERPLSGDAWAVAIINRQEIGGPRSYTIPVASLGKGVACNPACFITQLLPVKRQLGFYNWTSRLKSHINPTGTVLLQLENTMQMSLKDLL
modifications: Synthetic Polypeptide sequence of Variant No. 414 of mature Human GLA
B4: 417 (protein)
chain: LDNGLARTPTMGWLHWERFMCNLDCQEEPDSCISEKLFMEMAERMVSEGWKDAGYEYLCIDDCWMAPQRDSEGRLQADPQRFPHGIRQLANYVHSKGLKLGIYADVGNKTCAGFPGSFGYYDIDAQTFADWGVDLLKFDGCYCDSLENLADGYKHMSLALNSTGRSIVYSCEWPLYMWPFQKPNYTEIRQYCNHWRNFADIDDSWKSIKSILDWTSRNQERIVDVAGPGGWNDPDMLVIGNFGLSWDQQVTQMALWAIMAAPLFMSNDLRHISPQAKALLQDKDVIAINQDPLGKQGYQLRKGDNFEVWERPLSGDAWAVAIINRQEIGGPRSYTIPVASLGKGVACNPACFITQLLPVKRQLGFYNWTSRLKSHINPTGTVLLQLENTMQMSLKDLL
modifications: Synthetic Polypeptide sequence of Variant No. 417 of mature Human GLA
B5: 415 (protein)
chain: LDNGLARTPTMGWLHWERFMCNLDCQEEPDSCISEKLFMEMAERMVSEGWKDAGYEYLCIDDCWMAPQRDSEGRLQADPQRFPHGIRQLANYVHSKGLKLGIYADVGNKTCAGFPGSFGYYDIDAQTFADWGVDLLKFDGCYCDSLENLADGYKHMSLALNRTGRDIVYSCEWPLYMWPFQKPNYTEIRQYCNHWRNFADIDDSWKSIKSILDWTSRNQERIVDVAGPGGWNDPDMLVIGNFGLSWDQQVTQMALWAIMAAPLFMSNDLRHISPQAKALLQDKDVIAINQDPLGKQGYQLRKGDNFEVWERPLSGDAWAVAIINRQEIGGPRSYTIPVASLGKGVACNPACFITQLLPVKRQLGFYNWTSRLKSHINPTGTVLLQLENTMQMSLKDLL
modifications: Synthetic Polypeptide sequence of Variant No. 415 of mature Human GLA
B6: 416 (protein)
chain: LDNGLARTPTMGWLHWERFMCNLDCQEEPDSCISEKLFMEMAERMVSEGWKDAGYEYLCIDDCWMAPQRDSEGRLQADPQRFPHGIRQLANYVHSKGLKLGIYADVGNKTCAGFPGSFGYYDIDAQTFADWGVDLLKFDGCYCDSLENLADGYKHMSLALNGTGRSIVYSCEWPLYMWPFQKPNYTEIRQYCNHWRNFADIDDSWKSIKSILDWTSRNQERIVDVAGPGGWNDPDMLVIGNFGLSWDQQVTQMALWAIMAAPLFMSNDLRHISPQAKALLQDKDVIAINQDPLGKQGYQLRKGDNFEVWERPLSGDAWAVAIINRQEIGGPRSYTIPVASLGKGVACNPACFITQLLPVKRQLGFYNWTSRLKSHINPTGTVLLQLENTMQMSLKDLL
modifications: Synthetic Polypeptide sequence of Variant No. 416 of mature Human GLA
B7: 411 (protein)
chain: LDNGLARTPTMGWLHWERFMCNLDCQEEPDSCISEKLFMEMAERMVSEGWKDAGYEYLCIDDCWMAPQRDSEGRLQADPQRFPHGIRQLANYVHSKGLKLGIYADVGNKTCAGFPGSFGYYDIDAQTFADWGVDLLKFDGCYCDSLENLADGYKHMSLALNRTGRAIVYSCEWPLYMWPFQKPNYTEIRQYCNHWRNFADIDDSWKSIKSILDWTSRNQERIVDVAGPGGWNDPDMLVIGNFGLSWDQQVTQMALWAIMAAPLFMSNDLRHISPQAKALLQDKDVIAINQDPLGKQGYQLRKGDNFEVWERPLSGDAWAVAIINRQEIGGPRSYTIPVASLGKGVACNPACFITQLLPVKRQLGFYNWTSRLKSHINPTGTVLLQLENTMQMSLKDLL
modifications: Synthetic Polypeptide sequence of Variant No. 411 of mature Human GLA
B8: 412 (protein)
chain: LDNGLARTPTMGWLHWERFMCNLDCQEEPDSCISEKLFMEMAERMVSEGWKDAGYEYLCIDDCWMAPQRDSEGRLQADPQRFPHGIRQLANYVHSKGLKLGIYADVGNKTCAGFPGSFGYYDIDAQTFADWGVDLLKFDGCYCDSLENLADGYKHMSLALNRTGRHIVYSCEWPLYMWPFQKPNYTEIRQYCNHWRNFADIDDSWKSIKSILDWTSRNQERIVDVAGPGGWNDPDMLVIGNFGLSWDQQVTQMALWAIMAAPLFMSNDLRHISPQAKALLQDKDVIAINQDPLGKQGYQLRKGDNFEVWERPLSGDAWAVAIINRQEIGGPRSYTIPVASLGKGVACNPACFITQLLPVKRQLGFYNWTSRLKSHINPTGTVLLQLENTMQMSLKDLL
modifications: Synthetic Polypeptide sequence of Variant No. 412 of mature Human GLA

How the values were obtained:
Type in all cases: biochemical
[1] = HTP-analysis of supernatants pretreated with acid (MUGal hydrolysis); details: activity of the variant/activity of Rd4BB (SEQ ID NO: 15); challenge at pH 3.7
Procedure, shortened: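 Supernatants from INVSc1 yeast secreting GLA variants were challenged at 37° C. for 1-3 h in McIlvaine buffer at pH 3.3-4.3. Residual activity was then measured on 4 mM MUGal substrate stock at pH 4.8 with citrate buffer pH 4.3, over 30-180 min at 37° C. Reactions were quenched with sodium carbonate and read by fluorescence (Ex 355/Em 448 nm).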

[2] = HTP-analysis of supernatants pretreated with base (MUGal hydrolysis); details: activity of the variant/activity of Rd4BB (SEQ ID NO: 15); challenge at pH 9.65
Procedure, shortened: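 GLA variants secreted from yeast INVSc1; culture supernatants pre-incubated with McIlvaine buffer pH 7.0–8.2 or 200 mM bicarbonate pH 9.1–9.7 at 37° C. for 1–18 h. Residual activity: MUGal (4 mM stock) hydrolysis at pH 4.3–4.8, 37° C., 30–180 min, carbonate quench; fluorescence Ex 355/Em 448 nm.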

[3] = HTP-analysis of yeast culture supernatants, no challenge (MUGal hydrolysis); details: activity of the variant/activity of Rd4BB (SEQ ID NO: 15)
Procedure, shortened: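 GLA variants were expressed in INVSc1 yeast grown in SD-Ura broth with glucose at 30° C., and culture supernatants were collected after 66-84 h. Supernatant was mixed with McIlvaine buffer pH 4.8 and MUGal (2 mM stock) in 50 mM citrate, 200 mM KCl, pH 4.6, incubated at 37° C. for 30-180 minutes, then quenched with sodium carbonate.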

Molecule | Relative Activity of GLA Variants After Challenge at pH 3.7 [1] | Relative Activity of GLA Variants After Challenge at pH 9.65 [2] | Relative Activity of GLA Variants After No Challenge (NC) [3]
B1 | + (0.5 to 1.5 relative activity over Rd4BB (SEQ ID NO: 15)) | − (<0.5 relative activity over Rd4BB (SEQ ID NO: 15)) | + (0.5 to 1.5 relative activity over Rd4BB (SEQ ID NO: 15))
B2 | + (0.5 to 1.5 relative activity over Rd4BB (SEQ ID NO: 15)) | + (0.5 to 1.5 relative activity over Rd4BB (SEQ ID NO: 15)) | + (0.5 to 1.5 relative activity over Rd4BB (SEQ ID NO: 15))
B3 | + (0.5 to 1.5 relative activity over Rd4BB (SEQ ID NO: 15)) | + (0.5 to 1.5 relative activity over Rd4BB (SEQ ID NO: 15)) | + (0.5 to 1.5 relative activity over Rd4BB (SEQ ID NO: 15))
B4 | + (0.5 to 1.5 relative activity over Rd4BB (SEQ ID NO: 15)) | − (<0.5 relative activity over Rd4BB (SEQ ID NO: 15)) | + (0.5 to 1.5 relative activity over Rd4BB (SEQ ID NO: 15))
B5 | + (0.5 to 1.5 relative activity over Rd4BB (SEQ ID NO: 15)) | + (0.5 to 1.5 relative activity over Rd4BB (SEQ ID NO: 15)) | + (0.5 to 1.5 relative activity over Rd4BB (SEQ ID NO: 15))
B6 | + (0.5 to 1.5 relative activity over Rd4BB (SEQ ID NO: 15)) | − (<0.5 relative activity over Rd4BB (SEQ ID NO: 15)) | + (0.5 to 1.5 relative activity over Rd4BB (SEQ ID NO: 15))
B7 | + (0.5 to 1.5 relative activity over Rd4BB (SEQ ID NO: 15)) | + (0.5 to 1.5 relative activity over Rd4BB (SEQ ID NO: 15)) | + (0.5 to 1.5 relative activity over Rd4BB (SEQ ID NO: 15))
B8 | ++ (>1.5 to 2.5 relative activity over Rd4BB (SEQ ID NO: 15)) | + (0.5 to 1.5 relative activity over Rd4BB (SEQ ID NO: 15)) | + (0.5 to 1.5 relative activity over Rd4BB (SEQ ID NO: 15))
